Assays:
Settings in all cases: 20 nM; 72 h
[1] = tested on: MCF10A; assay: percent viability (nuclei count relative to siNT); higher = more viable cells
Experimental: (§1)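 After 72 h, cells were fixed and stained with Hoechst and anti-fibrillarin, and nucleoli per nucleus were counted with CellProfiler. Values are plate-adjusted percent effect for the one-nucleolus and 5+ nucleoli phenotypes, normalised to siNT (0%) and to the positive controls siNOL11 or siKIF11 (100%), as the mean of biological triplicates. Percent viability is the nuclei count relative to siNT.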

[2] = tested on: MCF10A; assay: 5+ nucleoli phenotype percent effect (relative to siNT 0% and siKIF11 100%); higher = more cells with five or more nucleoli
Experimental: as §1

[3] = tested on: MCF10A; assay: one-nucleolus phenotype percent effect (relative to siNT 0% and siNOL11 100%); higher = more cells with one nucleolus (ribosome biogenesis inhibition)
Experimental: as §1

Sequence | percent viability [1] [%] | 5+ nucleoli phenotype percent effect [2] [%] | one-nucleolus phenotype percent effect [3] [%]
UCAGGGAGUCAGGGGAGGGC [hsa-miR-4270] | 9.71 | -37.6 | 36.8
UCAGGGUUGGUAGGGGUUGCU [hsa-miR-6823-5p] | 22.1 | -11.9 | 19.8
UCAGGUGUGGAAACUGAGGCAG [hsa-miR-3934-5p] | 42.8 | -10.9 | 10.5
UCAGUAAAUGUUUAUUAGAUGA [hsa-miR-545-5p] | 175 | 38.8 | -24.2
UCAGUCACAUAUCUAGUGUCUA [hsa-miR-4704-3p] | 54.4 | 10.1 | 5.92
UCAGUGCACUACAGAACUUUGU [hsa-miR-148a-3p] | 88.9 | 68.2 | -16.7
UCAGUGCAUCACAGAACUUUGU [hsa-miR-148b-3p] | 126 | 68.9 | -21.1
UCAGUGCAUGACAGAACUUGG [hsa-miR-152] | 145 | 69.9 | -26.4
UCAGUGUCUGGAUUUCCUAG [hsa-miR-6733-3p] | 70.7 | -16.2 | -2.06
UCAGUUCCAGGCCAACCAGGCU [hsa-miR-584-3p] | 43.9 | 3.58 | 19.6
UCAUAUUGCUUCUUUCU [hsa-miR-1279] | 187 | 35.8 | -26.6
UCAUCCCCCUCGCCCUCUCAG [hsa-miR-6729-3p] | 58.8 | 10.2 | -21.1
UCAUCCUCGUCUCCCUCCCAG [hsa-miR-5196-3p] | 44.3 | -6.21 | -13.1
UCAUUAUAUGUAUGAUCUGGAC [hsa-miR-4528] | 57.6 | -2.39 | -16.8
UCAUUUAUCUGUUGGGAAGCUA [hsa-miR-4729] | 53.1 | -14.5 | 1.2
UCAUUUUUGUGAUGUUGCAGCU [hsa-miR-153-5p] | 55 | 3.53 | -16.7
UCCACUCUCCUGGCCCCCAG [hsa-miR-6777-3p] | 51 | 14.3 | -16.2
UCCAGCAUCAGUGAUUUUGUUG [hsa-miR-338-3p] | 98.2 | 26.3 | -13.2
UCCAGCUCGGUGGCAC [hsa-miR-4267] | 34.5 | 11.3 | -0.0012
UCCAGGCAGGAGCCGGACUGGA [hsa-miR-4673] | 62.5 | 14.9 | -17.9

Sequence | percent viability [1] [%] | 5+ nucleoli phenotype percent effect [2] [%] | one-nucleolus phenotype percent effect [3] [%]
UCCAGGGAGACAGUGUGUGAG [hsa-miR-7113-5p] | 32.5 | -2.05 | 23.5
UCCAGUACAGGUCUCUCAUUUC [hsa-miR-4712-5p] | 81.3 | -15.1 | 11
UCCAGUACCACGUGUCAGGGCCA [hsa-miR-770-5p] | 55.6 | -28.6 | 29.4
UCCAGUGCCCUCCUCUCC [hsa-miR-1825] | 70.3 | -2.13 | -8.72
UCCAUGUUUCCUUCCCCCUUCU [hsa-miR-4716-5p] | 28.8 | -43.5 | 45.4
UCCAUUACACUACCCUGCCUCU [hsa-miR-885-5p] | 71.4 | -8.23 | -5.62
UCCCAAGGGUGAGAUGCUGCCA [hsa-miR-6814-5p] | 48.6 | -13.3 | 7.66
UCCCACGUUGUGGCCCAGCAG [hsa-miR-662] | 128 | 35.3 | -20.4
UCCCACUACUUCACUUGUGA [hsa-miR-4301] | 45.1 | 60.9 | -19.4
UCCCAGGGUCUGGUCAGAGUUG [hsa-miR-6764-5p] | 25.8 | -18.4 | 29.5
UCCCCAACCCCUGCCCGCAG [hsa-miR-6793-3p] | 27.6 | -15.2 | 13.9
UCCCCCAGGUGUGAUUCUGAUUU [hsa-miR-361-3p] | 74.8 | 21.5 | -5.19
UCCCCUCCACUUUCCUCCUAG [hsa-miR-6887-3p] | 33.5 | -13.1 | -0.315
UCCCCUGCUCCCUUGUUCCCCAG [hsa-miR-6810-3p] | 35.1 | 4.97 | 3.27
UCCCCUUCCUCCCUGCCCAG [hsa-miR-6756-3p] | 51.9 | 16.4 | -12.3
UCCCCUUCUGCAGGCCUGCUGG [hsa-miR-3127-3p] | 144 | 34.9 | -24.5
UCCCUACCCCUCCACUCCCCA [hsa-miR-3162-3p] | 75.9 | 53.4 | -5.78
UCCCUCCUUCUGUCCCCACAG [hsa-miR-4667-3p] | 71.8 | -12.9 | -2.78
UCCCUCGCCUUCUCACCCUCAG [hsa-miR-6803-3p] | 58.1 | 25.3 | -18.8
UCCCUCUCCCACCCCUUGCAG [hsa-miR-6892-3p] | 52.2 | 42.4 | -29

Sequence | percent viability [1] [%] | 5+ nucleoli phenotype percent effect [2] [%] | one-nucleolus phenotype percent effect [3] [%]
UCCCUGAGACCCUAACUUGUGA [hsa-miR-125b-5p] | 93.8 | 17.3 | -11.8
UCCCUGAGACCCUUUAACCUGUGA [hsa-miR-125a-5p] | 117 | 28.8 | -18.8
UCCCUGAGCAAAGCCAC [hsa-miR-4319] | 59.9 | 9.87 | -1.9
UCCCUGCCCCCAUACUCCCAG [hsa-miR-6752-3p] | 28.7 | -28.9 | 14.5
UCCCUGGAGUUUCUUCUU [hsa-miR-4308] | 53.7 | 27.5 | -7.67
UCCCUGUCCUCCAGGAGCUCACG [hsa-miR-339-5p] | 51.6 | -0.871 | 0.467
UCCCUUCUUCCUGGGCCCUCA [hsa-miR-5088-3p] | 59.2 | 70.3 | -36.6
UCCCUUGUCUCCUUUCCCUAG [hsa-miR-6780b-3p] | 68.9 | 32.5 | -21.9
UCCGAACUCUCCAUUCCUCUGC [hsa-miR-6716-3p] | 166 | 35.3 | -19.3
UCCGAGCCUGGGUCUCCCUCUU [hsa-miR-615-3p] | 74.9 | -0.788 | -6.23
UCCGGUUCUCAGGGCUCCACC [hsa-miR-671-3p] | 15.2 | -33.5 | 54.3
UCCGUACAAACUCUGCUGUG [hsa-miR-3678-5p] | 64.4 | -49.2 | 39.4
UCCGUCUCAGUUACUUUAUAGC [hsa-miR-340-3p] | 74 | 26.3 | 1.48
UCCUAAAUCUGAAAGUCCAAAA [hsa-miR-5009-3p] | 117 | 46.2 | -25.9
UCCUACGCUGCUCUCUCACUCC [hsa-miR-6761-3p] | 43.5 | 14.2 | -18.4
UCCUCAUCACACUGCACCUUAG [hsa-miR-6072] | 32.4 | -18.4 | 13.4
UCCUCCUCUACCUCAUCCCAGU [hsa-miR-5193] | 35.1 | -13.6 | 9.86
UCCUCUUCUCCCUCCUCCCAG [hsa-miR-877-3p] | 59 | -15.4 | 6.33
UCCUGCCACCUCCUCCGCAG [hsa-miR-6727-3p] | 32.5 | -26.4 | 19.2
